Measured values: the supplement of paper PMC7877785
± gives the uncertainty stated by the source.

Test: self-splicing fitness, log relative to wild type (ln ratio); higher = more splicing; Tetrahymena group I intron in knt gene, E. coli kanamycin selection, DiMSum; sequences stand for … in CUCUCU…GGAGGGAAAAGUUAUCAGGCAUGCACCUGGUAGCUAGUCUUUAAACCAAUAGAUUGCAUCGGUUUAAAAGGCAAGACCGUCAAAUUGCGGGAAAGGGGUCAACAGCCGUUCAGUACCAAGUCUCAGGGGAAACUUUGAGAUGGCCUUGCAAAGGGUAUGGUAAUAAGCUGACGGACAUGGUCCUAACCACGCAGCCAAGUCCUAAGUCAACAGAUCUUCUGUUGAUAUGGAUGCAGUUCACAGACUAAAUGUCGGUCGGGGAAGAUGUAUUCUUCUCAUAAGAUAUAGUCGGACCUCUCCUUAAUGGGAGCUAGCGGAUGAAGUGAUGCAACACUGGAGCCGCUGGGAACUAAUUUGUAUGCGAAAGUAUAUUGAUUAGUUUUGGAGUACUCGUGGUCG
How it was run: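 Six replicate transformations of E. coli BL21(DE3) with a pET-22b(+) library were grown overnight at 37°C or 30°C. The library randomised all eight P1ex-region intron nucleotides, the intron lying in the knt kanamycin-resistance gene, and plates were LB agar with or without 25 μg/mL kanamycin plus 100 μg/mL carbenicillin, 50 μM IPTG and 0.2% rhamnose. Pooled colonies were amplicon-sequenced on an Illumina HiSeq 2500, and fitness is the DiMSum error-weighted combination of wild-type-normalised replicate fold changes, kanamycin versus none.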

Sequence	self-splicing fitness (ln) (30 °C)	self-splicing fitness (ln) (37 °C)
CCGUAGCAAUAUUACGUGAG	-3.11 ± 0.34	-2.51 ± 0.38
GGACAGCAAUAUUACGCCGG	-3.95 ± 0.48	-2.11 ± 0.32
CACUAGCAAUAUUACGACAC	-2.65 ± 0.22	-1.69 ± 0.24
CGGCAGCAAUAUUACGGGCC	-1.55 ± 0.2	-1.98 ± 0.32
AUGCAGCAAUAUUACGUCAC	–	-1.09 ± 0.16
AACGAGCAAUAUUACGAACC	-3.57 ± 0.49	-1.66 ± 0.35
GGAGAGCAAUAUUACGAGGC	-2.83 ± 0.23	-1.95 ± 0.37
GAUCAGCAAUAUUACGGUGA	-0.622 ± 0.069	-0.422 ± 0.075
AGCUAGCAAUAUUACGAAGA	-2.45 ± 0.24	-2.86 ± 0.18
UAUAAGCAAUAUUACGGUAG	-1.59 ± 0.077	-0.912 ± 0.095
AUCCAGCAAUAUUACGGUGA	-1.55 ± 0.096	-1.17 ± 0.11
AUAUAGCAAUAUUACGGACC	-0.93 ± 0.22	-0.283 ± 0.24
CCGAAGCAAUAUUACGAGUG	-0.855 ± 0.049	-0.0149 ± 0.062
GUCUAGCAAUAUUACGCUGC	–	-2.71 ± 0.34
AGUCAGCAAUAUUACGUUAU	-1.25 ± 0.099	-0.0312 ± 0.11
UAGAAGCAAUAUUACGUUAA	-3.14 ± 0.16	-1.39 ± 0.15
GUUAAGCAAUAUUACGCAAU	-3.09 ± 0.44	–
GGACAGCAAUAUUACGUUCG	-0.223 ± 0.076	0.0323 ± 0.095
AAAAAGCAAUAUUACGCAAU	-0.871 ± 0.076	-1.08 ± 0.13

Sequence	self-splicing fitness (ln) (30 °C)	self-splicing fitness (ln) (37 °C)
CGGUAGCAAUAUUACGACCU	0.308 ± 0.21	-0.233 ± 0.19
UUACAGCAAUAUUACGAAUU	-3.13 ± 0.22	-3.1 ± 0.24
CAAUAGCAAUAUUACGCUCG	-0.561 ± 0.074	-0.204 ± 0.092
GGUAAGCAAUAUUACGGUCU	0.187 ± 0.083	-0.0802 ± 0.087
GGAGAGCAAUAUUACGAGAG	-3.07 ± 0.25	-2.31 ± 0.33
CGCAAGCAAUAUUACGGUUG	-2.25 ± 0.098	-1.18 ± 0.096
ACUCAGCAAUAUUACGCGGC	-3.2 ± 0.25	–
CCUAAGCAAUAUUACGCGCA	-3.25 ± 0.24	-2.2 ± 0.19
AUGUAGCAAUAUUACGCUAC	-3.14 ± 0.34	-2.59 ± 0.34
AAAUAGCAAUAUUACGACCC	-0.239 ± 0.16	-0.544 ± 0.23
ACUUAGCAAUAUUACGCAGC	-1.98 ± 0.4	-1.43 ± 0.19
AUUUAGCAAUAUUACGUGUA	-2.42 ± 0.23	-1.5 ± 0.17
GAGAAGCAAUAUUACGUGAA	-1 ± 0.1	-1.23 ± 0.17
CGAUAGCAAUAUUACGCAUA	-3.25 ± 0.28	-1.8 ± 0.24
UACCAGCAAUAUUACGAGCC	-4.51 ± 0.33	-2.07 ± 0.32
UGUUAGCAAUAUUACGCACU	-0.724 ± 0.1	-0.553 ± 0.12
CUCGAGCAAUAUUACGCUAG	-4.42 ± 0.39	-2.52 ± 0.32
GGUGAGCAAUAUUACGCACU	-3.35 ± 0.44	-2.9 ± 0.43
AUAGAGCAAUAUUACGAUAC	-0.998 ± 0.12	-0.0688 ± 0.19
